Results from patent US20220409742A1, “NUCLEIC ACID NANOPARTICLES, PHARMACEUTICAL COMPOSITION COMPRISING SAME, DRUG COMPRISING DOXORUBICIN AND PREPARATION METHOD THEREFOR” (BAI YAO ZHI DA (BEIJING) NANOBIO TECHNOLOGY CO., LTD., priority 2018, published 2022).
“And” between values parts separate entries of the source, which are not always exact repeats. Equal values may be shown once. {Biotin} = biotin attached at the strand end; {Cy3} = Cy3 fluorescent dye

Legend:
HepG2 cells = experiment: Cytotoxicity of RNA nanoparticles in HepG2 cells (CellTiter-Glo); assay type: cell-based; conditions: 200 nM, 72 hours, CTG
Protocol: (1) A RPMI1640+10% FBS+1% PS medium was used to culture HepG2 cells under 37 DEG C. and 5% CO2.
(2) The HepG2 cells were digested by a trypsin, 100 μL of 5000 cells per well was inoculated in a 96-well plate, and cultured overnight under 37 DEG C. and 5% CO2.
(3) Cell supernatant was removed on the second day, a sample to be tested was diluted with the culture medium, 200 nM of RNAh, RNAh-Biotine, RNAh-Dox and Dox were respectively added, 100 μL each was added to the plated cells, and each sample was repeated for 4 times.
(4) After being cultured for 72 hours, 100 μL of a CTG reagent was added to each well, shaking was performed for 2 min, and standing was performed at a room temperature for 10 minutes, and a whole process was performed in the dark.
(5) Finally Soft Max ProS software was used for reading.

[1] = Particle size measurement (DLS hydrodynamic size); assay type: physicochemical
Excerpt: 1. Preparing a potential sample (conventional-sequence DNA self-assembly product D-7) and putting into a sample pool, opening a sample pool cover of an instrument, and placing the instrument;
2. opening software, and clicking a menu, so a manual measurement parameter setting dialog box appears;
3. setting a software detection parameter; and then
4. clicking Ok to complete the settings, while a measurement dialog box appears, clicking Start to start, a DLS measurement value result of a hydrodynamic size of the self-assembly product D-7 is as follows:
1. Preparing a potential sample (7 groups of extension fragment deformation+core short-sequence RNA) and putting into a sample pool, opening a sample pool cover of an instrument, and placing the instrument;
4. clicking Ok to complete the settings, while a measurement dialog box appears, clicking Start to start, a DLS measurement value result of a hydrodynamic size of the 7 groups of extension fragment deformation+core short-sequence RNA is as follows:
(1) Preparing a potential sample (7 groups of extension fragment deformation+core short-sequence DNA) and putting into a sample pool, opening a sample pool cover of an instrument, and placing the instrument;
(2) opening software, and clicking a menu, so a manual measurement parameter setting dialog box appears;
(3) setting a software detection parameter; and then
(4) clicking Ok to complete the settings, while a measurement dialog box appears, clicking Start to start, a DLS measurement value result of a hydrodynamic size of the 7 groups of extension fragment deformation+core short-sequence DNA is as follows: […]

[2] = Doxorubicin loading rate, chemical loading (paraformaldehyde covalent linkage); assay type: physicochemical; conditions: doxorubicin molecules per nucleic acid nanoparticle carrier
Protocol: (1) Accurately weighing the doxorubicin (5.0 mg, 8.6 μmol, 40 eq.) and dissolving in the DEPC treated water (1.8 mL) and the PBS buffer solution (2.1 mL), adding 4% paraformaldehyde aqueous solution (0.4 mL) under cooling of an ice-water bath and uniformly mixing, enabling the mixed solution to be totally uniformly mixed with the RNA nanoparticles (215 nmol), and reacting for 72 hours at 4 DEG C. under a dark condition.
(2) Taking 10 μL of reaction solution and diluting for 10 times, using 50 μM of the doxorubicin aqueous solution and 310 ng/μL of the RNA nanoparticles as controls, and performing HPLC analysis according to equal volume injection. According to a peak area ratio of each component, it may be adjusted that reaction conversion is basically completed.
(3) Extracting the reaction solution by the chloroform (10 mL×3), and then adding 10 times of the anhydrous ethanol in volume, after uniformly mixing, keeping at 4 DEG C. in the dark and enabling a product to be adequately precipitated (4 hours). Centrifuging, transferring supernatant, and washing the solid product again by the ethanol, evaporating a solvent under reduced pressure and lower temperature, to obtain a loading product which is a dark red solid.
(5) Loading rate calculation:
1. preparing a known concentration of doxorubicin-PBS standard solution: 2 μM, 4 μM, 6 μM, 8 μM, and 10 μM, 100 μL each;
2. enabling the doxorubicin-loaded product to be dissolved in 100 μL of the PBS;
3. putting the standard solution and the doxorubicin-loaded product into a PCR plate, heating at 85 DEG C. for 5 min, and then cooling to the room temperature;
4. measuring an absorbance of the doxorubicin at 492 nm by using a microplate reader, drawing a standard curve (as shown in FIG. 11), and calculating the molar concentration of the doxorubicin in the loaded product;
5. measuring an absorbance of RNA at 260 nm by using a spectrophotometer, to obtain the mass concentration of the doxorubicin-loaded product contained in each sample; and
6. according to the doxorubicin molar concentration and the mass concentration of the doxorubicin-loaded product obtained by measuring, calculating a loading rate.
According to the chemical loading method (unless otherwise specified, the method is the same as that of Embodiment 5) of Embodiment 5, the above DNA nanoparticles in Embodiment 1, the RNA nanoparticles formed by the self-assembly of the R-1, R-2, R-3, R-4, R-5, R-6 and R-7 in Embodiment 2, and the DNA nanoparticles formed by the self-assembly of the D-2, D-6 and D-7 in Embodiment 4 are respectively used as doxorubicin loading carriers, doxorubicin loading rates measured are respectively as follows:
According to the chemical loading method (unless otherwise specified, the method is the same as that of Embodiment 5) of Embodiment 5, the RNA nanoparticles formed by the self-assembly of the previous R-15, R-16, R-17, R-18, R-19, R-20 and R-21 in Embodiment 11, and the DNA nanoparticles formed by the self-assembly of the D-8, D-9, D-10, D-11, D-12, D-13 and D-14 in Embodiment 12 are respectively used as doxorubicin loading carriers, doxorubicin loading rates measured are respectively as follows: […]

[3] = Doxorubicin loading rate, physical loading; assay type: physicochemical; conditions: mass ratio doxorubicin:RNA nanoparticles 1:1, 55 DEG C., 3 h
Protocol: 1) enabling a mass ratio of the doxorubicin and the RNA nanoparticles to be 1:1;
2) weighing 0.1 mg of a doxorubicin original drug and dissolving in 50 μL of DMSO, and then adding 300 μL of the PBS and mixing uniformly;
3) enabling RNA particles to be dissolved in 200 μL of the […] treated water, and adding into the doxorubicin-PBS mixed solution, uniformly mixing, and adjusting a pH to be about 7.5;
4) putting the whole solution in a water bath kettle at 55 DEG C., and reacting for 3 h;
5) after the reaction, directly adding 10 times of anhydrous ethanol in volume, and precipitating at 4 DEG C. for 4 h; and
6) washing for 4 times with 10 times of the anhydrous ethanol, and transferring to 1.5 mL of a EP tube. Subsequently, measuring a loading rate, herein the measuring method is the same as above, and a measuring result is that a doxorubicin loading rate is 15.5.

[4] = Serum stability of RNA nanoparticles, RPMI 1640 with 10% serum, non-denaturing gel; assay type: in vitro ADME; conditions: for RNA quantification result, RNA nanoparticle: RPMI 1640 with 10% serum, 37 DEG C.
Protocol: (1) 350 μl of the PBS was absorbed into a RNA nanoparticle sample, and adequately mixed uniformly.
(2) 2 μM of the RNA nanoparticles were incubated in the RPMI 1640 medium containing 10% serum.
(3) After being incubated at 37 DEG C. for 10 min, 1 h, 12 h, and 36 h, samples were taken respectively.
(4) After NanoDrop used for quantification, 200 ng of the RNA nanoparticlesnanoparticle were taken, the same volume of Tris-Glycine SDS sample buffer solution (2×) was added, and adequately mixed uniformly.
(5) A piece of Novex™ 8% Tris-Glycine Mini gel was taken, the samples were loaded in order, a program was set in 200 V, 30 min, and electrophoresis was started.
(6) After the electrophoresis was over, G250 staining was performed, it was placed on a horizontal shaker for 30 min to 1 h, and pictures were taken for imaging.

Molecule: COc1cccc2c1C(=O)c1c(O)c3c(c(O)c1C2=O)C[C@@](O)(C(=O)CO)C[C@@H]3O[C@H]1C[C@H](N)[C@H](O)[C@H](C)O1 [doxorubicin]
- HepG2 cell proliferation (%) Mean ± SEM (n = 4) (HepG2 cells): 39.56%

B1: R-15: extension fragment deformation+core short-sequence RNA nanoparticle, SEQ ID NO:120-122, 3′ biotin on a-strand, 2′F (nucleic acid)
chain 1: GCGGCGAGCGGCGAGGAGCGUUGGGGCCGGAGGCCGG
chain 2: CCGGCCUCCGGCCCCUUCGGGGCCAGCCGCC
chain 3: GGCGGCAGGCCCCCAUAGCCCUCGCCGCUCGCCGC
modifications: chain 1: 3' {Biotin}, sugars by position and backbone not given here; chain 2: chemistry not given here; chain 3: chemistry not given here; three-strand RNA nanoparticle, 2'-F modified
- Mean particle size [1]: 6.808 nm

B2: R-16: extension fragment deformation+core short-sequence RNA nanoparticle, SEQ ID NO:123-125, 3′ biotin on a-strand, 2′F (nucleic acid)
chain 1: GCGGCGAGCGGCGAGCAGCGUUCGGGCCGGAGGCCGG
chain 2: CCGGCCUCCGGCCCGUUCGCCGCCAGCCGCC
chain 3: GGCGGCAGGCGGCCAUAGCGCUCGCCGCUCGCCGC
modifications: chain 1: 3' {Biotin}, sugars by position and backbone not given here; chain 2: chemistry not given here; chain 3: chemistry not given here; three-strand RNA nanoparticle, 2'-F modified
- Mean particle size [1]: 6.978 nm

B3: R-18: extension fragment deformation+core short-sequence RNA nanoparticle, SEQ ID NO:129-131, 3′ biotin on a-strand, 2′F (nucleic acid)
chain 1: GCGGCGAGCGGCGAGCAGCGUUCGGGCCGGAGGCCGG
chain 2: CCGGCCUCCGGCCCGUUCGGCGCCAGCCGCC
chain 3: GGCGGCAGGCGCCCAUAGCGCUCGCCGCUCGCCGC
modifications: chain 1: 3' {Biotin}, sugars by position and backbone not given here; chain 2: chemistry not given here; chain 3: chemistry not given here; three-strand RNA nanoparticle, 2'-F modified
- Mean particle size [1]: 7.520 nm

B4: R-19: extension fragment deformation+core short-sequence RNA nanoparticle, SEQ ID NO:132-134, 3′ biotin on a-strand, 2′F (nucleic acid)
chain 1: GCGGCGAGCGGCGAGCAGCGUUCGGGCCGGAGGCCGG
chain 2: CCGGCCUCCGGCCCGUUCGGCCCCAGCCGCC
chain 3: GGCGGCAGGGGCCCAUAGCGCUCGCCGCUCGCCGC
modifications: chain 1: 3' {Biotin}, sugars by position and backbone not given here; chain 2: chemistry not given here; chain 3: chemistry not given here; three-strand RNA nanoparticle, 2'-F modified
- Mean particle size [1]: 6.936 nm

B5: R-17: extension fragment deformation+core short-sequence RNA nanoparticle, SEQ ID NO:126-128, 3′ biotin on a-strand, 2′F (nucleic acid)
chain 1: GCGGCGAGCGGCGAGGAGCGUUGGGGCCGGAGGCCGG
chain 2: CCGGCCUCCGGCCCCUUCGCCGCCAGCCGCC
chain 3: GGCGGCAGGCGGCCAUAGCCCUCGCCGCUCGCCGC
modifications: chain 1: 3' {Biotin}, sugars by position and backbone not given here; chain 2: chemistry not given here; chain 3: chemistry not given here; three-strand RNA nanoparticle, 2'-F modified
- Mean particle size [1]: 7.592 nm

B6: D-7: conventional-sequence DNA nanoparticle, SEQ ID NO:117-119, without target head, thio modification (nucleic acid)
chain 1: CGCGCGCCCACGAGCGTTGCGGGCGCCGC
chain 2: GCGGCGCCCGCTTCGGCGGCAGGCGGC
chain 3: GCCGCCAGCCGCCCATAGCCGTGGGCGCGCG
modifications: DNA, backbone and methylation of C not given here; three-strand DNA nanoparticle, phosphorothioate modification
- Particle size Z-Ave, single detection ([1]; detection times 1-3, listed as 1): 10.76 nm·days and 13.9 nm·days and 10.36 nm·days
- Particle size Z-Ave, Experiment result ([1]; summary of 3 detections): 12.33 d.nm(±1.57 d.nm)
- doxorubicin loading rate [2]: 10

B7: RNA nanoparticles: RNA nanoparticles self-assembled in Embodiment 1 from strands SEQ ID NO:52-54, C/U 2′F, 5′Biotin, 5′CY3 (nucleic acid)
chain 1: CGCGCGCCCACCAGCGUUCCGGGCGCCGC
chain 2: GCGGCGCCCGGUUCGCCGCCAGGCGGC
chain 3: GCCGCCAGGCGGCCAUAGCGGUGGGCGCGCG
modifications: chain 1: 2'-fluoro at CU, RNA at AG, 5' {Biotin}, backbone not given here; chain 2: 2'-fluoro at CU, RNA at AG, 5' {Biotin}, backbone not given here; chain 3: 2'-fluoro at CU, RNA at AG, 5' {Cy3}, backbone not given here; three-strand self-assembled RNA nanoparticle
- doxorubicin loading rate [3]: 15.5
- serum stability (non-denaturing gel bands) ([4]; 1640 medium of 10% FBS, 10 min, 1 h, 12 h, 36 h at 37 DEG C.): relatively stable
- RNA quantification result, RNA nanoparticle ([4]; incubation 10 min): 193.5 ng/µL
- RNA quantification result, RNA nanoparticle ([4]; incubation 1 h): 176.0 ng/µL
- RNA quantification result, RNA nanoparticle ([4]; incubation 12 h): 175.5 ng/µL
- RNA quantification result, RNA nanoparticle ([4]; incubation 36 h): 214.8 ng/µL
- RNA quantification result, RNA nanoparticle ([4]; incubation time 0): 178.8 ng/µL
